Test results reported in US12043670B2, “Anti-BCMA antibody-drug conjugates and methods of use” (Eisai R&D Management Co., Ltd., priority 2020, dated 2024).
Numbering of substitutions follows the chain as printed.

B1: AB200-R1H26-R2Vk18 (antibody)
heavy: QVQLVQSGAEVKKPGSSVKVSCKASGGSFSNYWMHWVRQAPGQGLEWMGATYRIHSDTFYNQKFKGRVTITADKSTSTAYMELSSLRSEDTAVYYCARGAIYHGYDVLDNWGQGTLVTVSSASTKGPSVFPLAPSSKSTSGGTAALGCLVKDYFPEPVTVSWNSGALTSGVHTFPAVLQSSGLYSLSSVVTVPSSSLGTQTYICNVNHKPSNTKVDKKVEPKSC
light: DIQMTQSPSSLSASVGDRVTITCRASQSISSYINWYQQKPGKAPKLLIYAASSLQSGVPSRFSGSGSGTDFTLTISSLQPEDFATYYCQQFRKIPWTFGQGTKLEIKRTVAAPSVFIFPPSDEQLKSGTASVVCLLNNFYPREAKVQWKVDNALQSGNSQESVTEQDSKDSTYSLSSTLTLSKADYEKHKVYACEVTHQGLSSPVTKSFNRGEC
B2: AB200-R1H26-R2Vk8 (antibody)
heavy: B1 heavy
light: B1 light with A51T, S53N, S56I, I94L, T97S
B3: AB200-R1H26-R2Vk41 (antibody)
heavy: B1 heavy
light: B1 light with A51T, S53N, L54I, K93R, I94L
B4: AB200-R1H26-R2Vk17 (antibody)
heavy: B1 heavy
light: B1 light with F91Y, T97S
B5: AB200-R1H26-R2Vk27 (antibody)
heavy: B1 heavy
light: B1 light with I33L, A51T, S53N, L54I, F91Y, T97S
B6: AB200-R1H26-R2Vk39 (antibody)
heavy: B1 heavy
light: B1 light with A51T, S53N, L54I, F91Y, K93R, I94L, T97S
B7: AB200-R1H32-R2Vk37 (antibody)
heavy: B1 heavy with S28T, I54S, F59Y, G66S, L108I
light: B1 light with A51T, S53N, F91Y, T97S
B8: AB200-R1H26-R2Vk28 (antibody)
heavy: B1 heavy
light: B1 light with I33L, A51T, S53N, L54I
B9: AB200-R1H26-R2Vk42 (antibody)
heavy: B1 heavy
light: B1 light with A51T, S53N, L54I, F91Y, T97S
B10: AB200-R1H32-R2Vk43 (antibody)
heavy: B1 heavy with S28T, I54S, F59Y, G66S, L108I
light: B1 light with A51T, S53N, L54I
B11: AB200-R1H32-R2Vk41 (antibody)
heavy: B1 heavy with S28T, I54S, F59Y, G66S, L108I
light: B1 light with A51T, S53N, L54I, K93R, I94L
B12: AB200-(2Vk8)_R2-CDR1-hs-v4 (antibody)
heavy: B1 heavy with S28T, N31S, W33A, M34I, H35S, I54S, H55Q, G66S, I101V, L108I
light: B1 light with A51T, S53N, S56I, I94L, T97S
B13: AB200-R1H32-R2Vk27 (antibody)
heavy: B1 heavy with S28T, I54S, F59Y, G66S, L108I
light: B1 light with I33L, A51T, S53N, L54I, F91Y, T97S
B14: AB200-R1H32-R2Vk40 (antibody)
heavy: B1 heavy with S28T, I54S, F59Y, G66S, L108I
light: B1 light with A51T, S53N, L54I, F91Y, K93R
B15: AB200-R1H26-R2Vk47 (antibody)
heavy: B1 heavy
light: B1 light with A51T, S53N, S56I, F91Y, T97S
B16: AB200-R1H32-R2Vk6 (antibody)
heavy: B1 heavy with S28T, I54S, F59Y, G66S, L108I
light: B1 light with A51T, S53N, I94L, T97S
B17: AB200-R1H26-R2Vk43 (antibody)
heavy: B1 heavy
light: B1 light with A51T, S53N, L54I
B18: AB200-R1H26-R2Vk40 (antibody)
heavy: B1 heavy
light: B1 light with A51T, S53N, L54I, F91Y, K93R
B19: AB200-R1H32-R2Vk47 (antibody)
heavy: B1 heavy with S28T, I54S, F59Y, G66S, L108I
light: B1 light with A51T, S53N, S56I, F91Y, T97S
B20: AB200-R1H32-R2Vk2 (antibody)
heavy: B1 heavy with S28T, I54S, F59Y, G66S, L108I
light: B1 light with I94L, T97S
B21: AB200-R1H32-R2Vk17 (antibody)
heavy: B1 heavy with S28T, I54S, F59Y, G66S, L108I
light: B1 light with F91Y, T97S
B22: AB200-R1H26-R2Vk38 (antibody)
heavy: B1 heavy
light: B1 light with A51T, S53N
B23: AB200-R1H32-R2Vk18 (antibody)
heavy: B1 heavy with S28T, I54S, F59Y, G66S, L108I
light: B1 light
B24: AB200-R1H26-R2Vk2 (antibody)
heavy: B1 heavy
light: B1 light with I94L, T97S
B25: AB200-R1H26-R2Vk6 (antibody)
heavy: B1 heavy
light: B1 light with A51T, S53N, I94L, T97S
B26: AB200-R1H26-R2Vk7 (antibody)
heavy: B1 heavy
light: B1 light with A51T, S53N, L54I, I94L, T97S
B27: AB200-R1H32-R2Vk7 (antibody)
heavy: B1 heavy with S28T, I54S, F59Y, G66S, L108I
light: B1 light with A51T, S53N, L54I, I94L, T97S
B28: AB200-R1H32-R2Vk8 (antibody)
heavy: B1 heavy with S28T, I54S, F59Y, G66S, L108I
light: B1 light with A51T, S53N, S56I, I94L, T97S
B29: AB200-R1H32-R2Vk42 (antibody)
heavy: B1 heavy with S28T, I54S, F59Y, G66S, L108I
light: B1 light with A51T, S53N, L54I, F91Y, T97S
B30: AB200-R1H32-R2Vk39 (antibody)
heavy: B1 heavy with S28T, I54S, F59Y, G66S, L108I
light: B1 light with A51T, S53N, L54I, F91Y, K93R, I94L, T97S
B31: AB200-R1H26-R2Vk37 (antibody)
heavy: B1 heavy
light: B1 light with A51T, S53N, F91Y, T97S
B32: AB200-R1H26-R2Vk4 (antibody)
heavy: B1 heavy
light: B1 light with I33L, A51T, S53N, L54I, I94L, T97S
B33: AB200-R1H32-R2Vk38 (antibody)
heavy: B1 heavy with S28T, I54S, F59Y, G66S, L108I
light: B1 light with A51T, S53N
B34: AB200-R1H26-R2Vk48 (antibody)
heavy: B1 heavy
light: B1 light with A51T, S53N, S56I
B35: AB200-R1H32-R2Vk4 (antibody)
heavy: B1 heavy with S28T, I54S, F59Y, G66S, L108I
light: B1 light with I33L, A51T, S53N, L54I, I94L, T97S
B36: AB200-R1H32-R2Vk28 (antibody)
heavy: B1 heavy with S28T, I54S, F59Y, G66S, L108I
light: B1 light with I33L, A51T, S53N, L54I

Test: ThermoFluor thermostability (Tm)
Assay type: physicochemical
[1] = Light chain screening Round 2, Fab, paired with heavy chain AB200_R1_VH26
[2] = Fab fragment, light chain clone paired with heavy chain AB200_R1_VH32

Row | Molecule | Tm [1] | Tm [2] | other results
1 | B1 | 82.729 °C | – | –
2 | B2 | 82.921 °C | – | –
3 | B3 | 83.256 °C | – | –
4 | B4 | 78.993 °C | – | –
5 | B5 | 79.104 °C | – | –
6 | B6 | 78.907 °C | – | –
7 | B7 | – | 76.708 °C | –
8 | B8 | 82.966 °C | – | –
9 | B9 | 78.411 °C | – | –
10 | B10 | – | 78.820 °C | –
11 | B11 | – | 79.593 °C | –
12 | B12 | – | – | Tm (Fab fragment, heavy chain clone paired with light chain AB200-(2Vk8)): 76.495 °C
13 | B13 | – | 76.729 °C | –
14 | B14 | – | 76.379 °C | –
15 | B15 | 78.634 °C | – | –
16 | B16 | – | 79.773 °C | –
17 | B17 | 82.001 °C | – | –
18 | B18 | 79.308 °C | – | –

Row | Molecule | Tm [1] | Tm [2] | other results
19 | B19 | – | 75.976 °C | –
20 | B20 | – | 79.715 °C | –
21 | B21 | – | 76.415 °C | –
22 | B22 | 83.791 °C | – | –
23 | B23 | – | 79.872 °C | –
24 | B24 | 82.119 °C | – | –
25 | B25 | 82.640 °C | – | –
26 | B26 | 81.764 °C | – | –
27 | B27 | – | 79.001 °C | –
28 | B28 | – | 80.002 °C | –
29 | B29 | – | 75.027 °C | –
30 | B30 | – | 76.077 °C | –
31 | B31 | 79.374 °C | – | –
32 | B32 | 81.832 °C | – | –
33 | B33 | – | 80.727 °C | –
34 | B34 | 83.862 °C | – | –
35 | B35 | – | 79.449 °C | –
36 | B36 | – | 79.945 °C | –
